Positions count from the first letter of the chain named. Values belong to the binder of their own block, whether it stands above or below them.
Legend:
[1] = biological target: T1, full length purified peptide of pleiotrophin (PEPTIDE INSTITUTE, INC.: 4335-v) (UniProt P21246 33-168, limits assumed); assay: ELISA on full length purified peptide of pleiotrophin
T1 construct: mature; Bought product; also called PTN
T1 sequence (looked up): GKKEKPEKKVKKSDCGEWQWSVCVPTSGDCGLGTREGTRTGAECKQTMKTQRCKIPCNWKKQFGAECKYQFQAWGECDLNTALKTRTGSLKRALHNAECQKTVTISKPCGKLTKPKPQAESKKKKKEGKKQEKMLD

[2] = biological target: AP-MK, recombinant protein having alkaline phosphatase (AP) fused to the N-terminal of aa23-121 of MK (human) (UniProt P21741); assay: AP-MK binding inhibition assay on TNB1 cells; AP-MK 0.6 U/ml, antibody 90 ug/mL
[3] = biological target: T2, mutant MK recombinant protein MK-R81Q (human, UniProt P21741 23-143, R81Q); assay: ELISA, plates coated with wild type or mutant MK, antibody serially diluted from 5 ug/mL
T2 construct: range 23-143; Made from MKver10-pQCxmhIPG, secreted from 293T cells; not shown: linker and tag from vector pQCxmhIPG
T2 sequence (looked up): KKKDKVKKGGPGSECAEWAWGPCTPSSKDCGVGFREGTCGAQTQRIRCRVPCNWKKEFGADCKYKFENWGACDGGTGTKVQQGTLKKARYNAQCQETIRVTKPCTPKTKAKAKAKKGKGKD
Procedure: (§1) Hybridomas producing anti-MK antibodies were selected by enzyme-linked immunosorbent assay (ELISA). The assay used the aforementioned recombinant human MK (MKver10) which had been dispensed in a 96-well ELISA plate (nunc) in an amount of 0.5 μg/mL (50 μL/well) and left to stand for 2 hours at room temperature or overnight at […] for adsorption. After removal of the resulting solution, 1% BSA (Nacalai: 01863-35)-5% Sucrose (WAKO)-PBS was added in an amount of 150 μL/well, and the system was allowed to stand for 2 hours at room temperature to block the remaining active groups. After standing of the system, the resulting solution was removed, and the hybridoma culture supernatant (50 μL/well) was dispensed as a primary antibody, whereafter the system was allowed to stand for 1 hour. After the plate was washed with 0.05% Tween 20-PBS, HRP-labeled goat anti-mouse IgG (MBL: 330) diluted 1:10000 was added as a secondary antibody in an amount of 50 μL/well, and the system was allowed to stand for 1 hour at room temperature. After the plate was washed with 0.05% Tween 20-PBS, a color developing solution (5 mM sodium citrate, 0.8 mM 3,3′,5,5′-tetramethylbenzidine-2HCl, 10% N,N-dimethylformamide, 0.625% polyethylene glycol 4000, 5 mM citric acid monohydrate, 5 mM H₂O₂) was added in an amount of 50 μL/well, and the system was allowed to stand for 20 minutes at room temperature to develop a color. 1M phosphoric acid was added in an amount of 50 μL/well to terminate color development, and then the absorbance at 450 nm was measured using a plate reader (Thermo Fisher Scientific).
(§2) The reactivities of the resulting antibodies with the mutant MKs were confirmed by the same enzyme-linked immunosorbent assay (ELISA) as described above. The assays used plates having wild type human MK (MKver10) or the above-mentioned mutant MK (MK-W69A, MK-K79Q, MK-R81Q and MK-K102Q) adsorbed thereto. The anti-MK antibody at a maximum concentration of 5 μg/mL was serially diluted with PBS, and used as a primary antibody. As examples of the antibodies recognizing the N-terminal side or the C-terminal side of midkine, but showing no neutralizing activity, BF106 and FB74 were also evaluated similarly.

[4] = biological target: T3, mutant MK recombinant protein MK-K102Q (human, UniProt P21741 23-143, K102Q); assay: as above
T3 construct: range 23-143; Made from MKver10-pQCxmhIPG, secreted from 293T cells; not shown: linker and tag from vector pQCxmhIPG
T3 sequence (looked up): T2 sequence (looked up) with Q81R, K102Q
Procedure: as §1, §2

[5] = biological target: T4, mutant MK recombinant protein MK-W69A (human, UniProt P21741 23-143, W69A); assay: as above
T4 construct: range 23-143; Made from MKver10-pQCxmhIPG, secreted from 293T cells; not shown: linker and tag from vector pQCxmhIPG
T4 sequence (looked up): T2 sequence (looked up) with W69A, Q81R
Procedure: as §1, §2

[6] = biological target: T5, mutant MK recombinant protein MK-K79Q (human, UniProt P21741 23-143, K79Q); assay: as above
T5 construct: range 23-143; Made from MKver10-pQCxmhIPG, secreted from 293T cells; not shown: linker and tag from vector pQCxmhIPG
T5 sequence (looked up): T2 sequence (looked up) with K79Q, Q81R
Procedure: as §1, §2

[7] = biological target: AP-MK, recombinant protein having alkaline phosphatase (AP) fused to the N-terminal of aa23-121 of MK (human) (UniProt P21741); assay: AP-MK binding inhibition assay on TNB1 cells; antibody 10 ug/mL
Target sequence in this assay (P21741 23-143, form in doubt): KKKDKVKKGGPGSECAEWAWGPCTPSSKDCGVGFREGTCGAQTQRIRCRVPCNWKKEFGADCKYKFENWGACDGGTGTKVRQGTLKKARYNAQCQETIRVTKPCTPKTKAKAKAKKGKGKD

relative AP activity (% of wells with AP-MK alone) [7]: 20%
B2: mFB54-matu089 affinity-improved antibody (IgG) (antibody, V domains shown)
VH: EVMLVESGGGLVEPGGSLKLSCTVSGFTFSSYAMSWVRQTPEKRLEWVATISSGGSYTYYPDSVKGRFTISRDNAKNTLYLQMSSLRSEDTAMYFCARHNYRYDEYYYAMDYWGHGTSVTVSS
VL: ETTVTQSPTSLSMAIGEKVTIRCITSIDIDDEMNWYQQKPGEPPKLLISEGNTLRPGVPSRFSSSGYGTDFVFTIENVLSEDVADYYCLQSDNLPYTFGGGTKLEIK

relative AP activity (% of wells with AP-MK alone) [7]: 30.1%
B5: hFB54-matu039 affinity-improved antibody (IgG) (antibody, V domains shown)
VH: EVRLVESGGGLVKPGGYLRLSCAASGFTFSSYAMSWVRQAPGKGLDWVATISSGGSYTYYPDSVKERFTISRDNAKNSLYLQMNSLTDDDTAVYFCARHNYRYDEYYYGMDYWGQGTLVTVSS
VL: ETTVTQSPSSLSASVGDRVTIRCKTSIDIDDEMNWYQQKPGKGPKLLISEGNTLRPGVPSRFSSSGYGTDFTLTISSLQPEDFATYYCLQSDNLPYTFGQGTKLGIK

relative AP activity (% of wells with AP-MK alone) [7]: 81.8%
B7: humanized FB54 antibody hFB54 (FB54-rHa/FB54-rKc) (antibody, human IgG1, V domains shown)
VH: B5 VH with R3Q, E66G, G109A
VL: B5 VL with K24I, I27T, G105E

relative AP activity (% of wells with AP-MK alone) [7]: 28.3%
B9: hFB54-matu062 affinity-improved antibody (IgG) (antibody, V domains shown)
VH: B5 VH with R3Q, E66G, K76E, S78T, D88N, G109A
VL: B5 VL with S14F, D17G, T20A, K24I, S26N, L89M, G105E

relative AP activity (% of wells with AP-MK alone) [7]: 25.6%
B11: hFB54-matu014 affinity-improved antibody (IgG) (antibody, V domains shown)
VH: B5 VH with R3Q, A40T, E66G, A75V, G109A
VL: B5 VL with K24I, S26N, Q100R, G105E

Continued, binder first:

B1: anti-human midkine mouse monoclonal antibody FB54 (antibody, V domains shown)
VH: B2 VH with E13K, T23A, V24A, H115Q
VL: B2 VL with I27T, V78M
notes: Mouse hybridoma IgG; variable genes were amplified with mouse IgG1 CH1 and kappa constant primers; also called mFB54; mouse FB54 antibody
binding result [1]: no binding | relative AP activity (% of wells with AP-MK alone) [2]: 29.5% | binding result [3]: binds | binding result [4]: binds | binding result [5]: binds | binding result [6]: binds

B3: mFB54-matu002 affinity-improved antibody (IgG) (antibody, V domains shown)
VH: B2 VH with E13K, T23A, V24A, H115Q
VL: B2 VL with I24T, K39M, V78M
relative AP activity (% of wells with AP-MK alone) [7]: 18.9%

B4: hFB54-matu024 affinity-improved antibody (IgG) (antibody, V domains shown)
VH: B5 VH with R3Q, E66G, D104G, G109A
VL: B5 VL with K24I, P40S, G105E
relative AP activity (% of wells with AP-MK alone) [7]: 22.7%

B6: hFB54-matu020 affinity-improved antibody (IgG) (antibody, V domains shown)
VH: B5 VH with R3Q, L18Q, E66G, S85N, Y108H, G109A
VL: B5 VL with K24I, G105E
relative AP activity (% of wells with AP-MK alone) [7]: 26.8%

B8: hFB54-matu072 affinity-improved antibody (IgG) (antibody, V domains shown)
VH: B5 VH with R3Q, S63N, E66G, Y108H, G109A
VL: B5 VL with S12F, R18K, K24I, G105E
relative AP activity (% of wells with AP-MK alone) [7]: 33%

B10: hFB54-matu054 affinity-improved antibody (IgG) (antibody, V domains shown)
VH: B5 VH with R3Q, E66G, A75T, S78T, G109A
VL: B5 VL with K24I, D30E, G105E
relative AP activity (% of wells with AP-MK alone) [7]: 33.5%
